Test results published in patent publication US20250295803A1, “5T4 ANTIBODY-DRUG CONJUGATES AND USES THEREOF” (EXELIXIS, INC., priority 2022, published 2025).

T1: unconjugated human TPBG/5T4 protein with a c-terminal polyhistidine and Avi tag (AcroBiosystems Cat. No. … (human, UniProt Q13641 32-355))
T1 construct: Bought protein; also called Acro TPGH52E5; Acro Catalog No. TPGH52E; not shown: C-terminal polyhistidine and Avi tag
T1 sequence: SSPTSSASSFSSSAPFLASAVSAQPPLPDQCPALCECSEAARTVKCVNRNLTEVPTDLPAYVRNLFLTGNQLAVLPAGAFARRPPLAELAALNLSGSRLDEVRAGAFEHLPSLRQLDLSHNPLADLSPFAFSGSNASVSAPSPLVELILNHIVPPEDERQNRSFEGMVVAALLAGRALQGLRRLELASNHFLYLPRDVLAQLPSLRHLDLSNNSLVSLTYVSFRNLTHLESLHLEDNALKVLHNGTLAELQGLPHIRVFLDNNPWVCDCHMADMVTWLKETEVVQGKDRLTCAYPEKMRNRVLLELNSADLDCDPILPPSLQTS

T2: HEK293 and CHO cells transfected to express mouse 5T4 (Mus musculus, UniProt Q9Z0L0)
T2 construct: expressed in transfected cells; host or cells: HEK293 and CHO
T2 sequence (Q9Z0L0 32-426): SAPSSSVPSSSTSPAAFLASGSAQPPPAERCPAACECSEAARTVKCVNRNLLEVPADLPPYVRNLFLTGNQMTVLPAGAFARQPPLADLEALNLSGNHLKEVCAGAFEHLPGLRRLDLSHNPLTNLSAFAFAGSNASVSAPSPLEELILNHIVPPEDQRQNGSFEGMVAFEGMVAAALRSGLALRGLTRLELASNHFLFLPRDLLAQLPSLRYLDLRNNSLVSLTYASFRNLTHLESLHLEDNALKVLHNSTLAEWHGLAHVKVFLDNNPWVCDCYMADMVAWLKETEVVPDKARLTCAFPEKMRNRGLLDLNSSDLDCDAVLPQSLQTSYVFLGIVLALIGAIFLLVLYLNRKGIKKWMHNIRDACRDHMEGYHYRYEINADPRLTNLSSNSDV

T3: HEK293 and CHO cells transfected to express cyno 5T4 (Macaca fascicularis, UniProt Q4R8Y9)
T3 construct: expressed in transfected cells; host or cells: HEK293 and CHO
T3 sequence (Q4R8Y9 35-420): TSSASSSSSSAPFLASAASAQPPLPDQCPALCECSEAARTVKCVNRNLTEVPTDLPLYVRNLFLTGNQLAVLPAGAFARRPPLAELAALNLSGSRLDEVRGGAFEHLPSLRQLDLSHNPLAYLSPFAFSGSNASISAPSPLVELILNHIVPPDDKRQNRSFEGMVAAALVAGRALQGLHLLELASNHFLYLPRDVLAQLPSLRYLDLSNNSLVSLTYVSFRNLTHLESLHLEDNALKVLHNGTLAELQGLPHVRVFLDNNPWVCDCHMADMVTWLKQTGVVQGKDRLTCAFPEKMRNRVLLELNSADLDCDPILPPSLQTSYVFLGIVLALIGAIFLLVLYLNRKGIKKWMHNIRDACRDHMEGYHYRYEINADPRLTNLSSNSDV

T4: HEK293 and CHO cells transfected to express rat 5T4 (Rattus norvegicus, UniProt Q5PQV5)
T4 construct: expressed in transfected cells; host or cells: HEK293 and CHO
T4 sequence (Q5PQV5 32-426): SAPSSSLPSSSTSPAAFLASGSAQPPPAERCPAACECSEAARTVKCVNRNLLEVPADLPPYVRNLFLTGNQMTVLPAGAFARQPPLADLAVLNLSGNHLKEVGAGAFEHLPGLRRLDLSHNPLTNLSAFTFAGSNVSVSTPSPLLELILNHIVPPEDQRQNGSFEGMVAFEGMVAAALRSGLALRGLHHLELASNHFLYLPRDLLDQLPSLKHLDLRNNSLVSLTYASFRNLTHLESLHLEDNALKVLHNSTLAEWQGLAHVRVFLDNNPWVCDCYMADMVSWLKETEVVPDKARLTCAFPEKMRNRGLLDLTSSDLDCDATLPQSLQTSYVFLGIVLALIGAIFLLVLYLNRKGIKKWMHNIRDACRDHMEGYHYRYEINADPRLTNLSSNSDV


Columns and labels:
[1] = biological target: T1, unconjugated human TPBG/5T4 protein …; assay: ELISA on coated human 5T4 His-Avi (Acro TPG-H52E5); antibody condition: pH 5.5 Day 0
Protocol: A. Normal Binding Unconjugated antibodies were tested for their ability to bind to human 5T4 (hu5T4) using ELISA. On Day 1, unconjugated human TPBG/5T4 protein with a c-terminal polyhistidine and Avi (AVITAG™) tag (AcroBiosystems (Newark, DE, USA), Cat. No. TPG-H52E5) was diluted 2 μg/mL in PBS, mixed thoroughly, plated 100 μL per well in a 96-well plate (Nunc MAXISORP®) and incubated overnight at 4° C.
2. Low pH Stress Test. Several unconjugated antibodies were tested for their ability to bind to 5T4 using ELISA under acidic (low pH) conditions. Solutions of 1 mg/mL to 10 mg/mL of antibody in […] were prepared and stored at 37° C. for 1 to 2 weeks.

[2] = biological target: T2, HEK293 and CHO cells transfected to express mouse 5T4; assay: Cell binding to transfected HEK293 and CHO cells, mouse 5T4; type: cell-based
Protocol: (§1) Unconjugated antibodies were tested for their ability to bind to HEK293 and CHO cells transfected to express human, cyno, rat, or mouse 5T4.

[3] = biological target: T3, HEK293 and CHO cells transfected to express cyno 5T4; assay: Cell binding to transfected HEK293 and CHO cells, cyno 5T4; type: cell-based
Protocol: as §1

[4] = biological target: T4, HEK293 and CHO cells transfected to express rat 5T4; assay: Cell binding to transfected HEK293 and CHO cells, rat 5T4; type: cell-based
Protocol: as §1

[5] = Protein thermal shift (melting temperature); type: physicochemical
Protocol: Samples for protein thermal shift experiments (melting temperature) were prepared using the APPLIED BIOSYSTEMS™ PROTEIN THERMAL SHIFT™ Dye Kit (ThermoFisher Scientific Cat. No. 4461146). Data were collected using a QUANTSTUDIO™ 3 instrument (ThermoFisher Scientific Cat. No. A28567) with PROTEIN THERMAL SHIFT™ Software v1.4 (ThermoFisher Scientific Cat. No. 466038). Briefly, PROTEIN THERMAL SHIFT™ dye (1000×) was diluted in water to 8× in deionized water. Samples were prepared on ice by combining 5 μL of PROTEIN THERMAL SHIFT™ Buffer, 12.5 μL of protein solution, and 2.5 μL of the diluted PROTEIN THERMAL SHIFT™ Dye (8×) for a total reaction solution volume of 20 μL. The reaction solution was mixed 10 times with a pipette. Tubes were then spun down at 1000 rpm for 1 minute and then incubated on ice until analysis. Samples were loaded onto the instrument plate, which were then loaded into a QUANTSTUDIO™ 3 Real-Time PCR System instrument. Data was collected using the standard Melt Curve experiment with the following conditions: Step 1 temperature: 25° C. for 2 minutes; Step 2 temperature: 99° C. for 2 minutes with continuous fast ramp mode (Step 1: 1.6° C./sec; Step 2: 0.05° C./sec). Raw melting temperature data were deconvoluted within the QUANTSTUDIO™ 3 analysis software.

EC50 [1] [nM]	Molecule	reactivity to cells transfected to express mouse 5T4 [2]	reactivity to cells transfected to express cyno 5T4 [3]	reactivity to cells transfected to express rat 5T4 [4]	CH2 Tm [5]	Fab Tm [5]
0.164	mAbA17 (antibody, V domains shown, also called Antibody mAbA17) VH: EVQLVESGGGLVQPGGSLRLSCAASGFTFSRYWIHWVRQAPGKGLEWVAAIFPYSGSTLYADSVKGRFTISADTSKNTAYLQMNSLRAEDTAVYYCARSPSRSILPSGLDYWGQGTLVTVSS VL: DIQMTQSPSSLSASVGDRVTITCRASQSVSSAVAWYQQKPGKAPKLLIYSASSLYSGVPSRFSGSRSGTDFTLTISSLQPEDFATYYCQQGDGSPYTFGQGTKVEIKR	–	–	–	–	–
0.124	mAbA15 (antibody, V domains shown, also called Antibody mAbA15) VH: EVQLVESGGGLVQPGGSLRLSCAASGFTFSSYYIHWVRQAPGKGLEWVAYITSTGSYTEYADSVKGRFTISADTSKNTAYLQMNSLRAEDTAVYYCARYDRSTRYSGLDYWGQGTLVTVSS VL: DIQMTQSPSSLSASVGDRVTITCRASQSVSSAVAWYQQKPGKAPKLLIYSASSLYSGVPSRFSGSRSGTDFTLTISSLQPEDFATYYCQQAYATPVTFGQGTKVEIKR	–	–	–	–	–
–	mAbA17: 5T4 antibody comprising VH of SEQ ID NO:62 and VL of SEQ ID NO:63 (antibody, V domains shown, Antibody mAbA17 VH Sequence; Antibody mAbA17 VL Sequence) VH: EVQLVESGGGLVQPGGSLRLSCAASGFTFSRYWIHWVRQAPGKGLEWVAAIFPYSGSTLYADSVKGRFTISADTSKNTAYLQMNSLRAEDTAVYYCARSPSRSILPSGLDYWGQGTLVTVSS VL: DIQMTQSPSSLSASVGDRVTITCRASQSVSSAVAWYQQKPGKAPKLLIYSASSLYSGVPSRFSGSRSGTDFTLTISSLQPEDFATYYCQQGDGSPYTFGQGTKVEIK	not to cells transfected to express rat or mouse 5T4	reactive	not to cells transfected to express rat or mouse 5T4	70.06	81.92
0.133	mAbA4 (antibody, V domains shown, also called Antibody mAbA4) VH: EVQLVESGGGLVQPGGSLRLSCAASGFTFSRYYIHWVRQAPGKGLEWVAFISPGGSYTYYADSVKGRFTISADTSKNTAYLQMNSLRAEDTAVYYCAREYYSMGVLDYWGQGTLVTVSS VL: DIQMTQSPSSLSASVGDRVTITCRASQSVSSAVAWYQQKPGKAPKLLIYSASSLYSGVPSRFSGSRSGTDFTLTISSLQPEDFATYYCQQAYESPYTFGQGTKVEIKR	–	–	–	–	–
–	mAbA4: 5T4 antibody comprising VH of SEQ ID NO:25 and VL of SEQ ID NO:26 (antibody, V domains shown, Antibody mAbA4 VH Sequence; Antibody mAbA4 VL Sequence) VH: EVQLVESGGGLVQPGGSLRLSCAASGFTFSRYYIHWVRQAPGKGLEWVAFISPGGSYTYYADSVKGRFTISADTSKNTAYLQMNSLRAEDTAVYYCAREYYSMGVLDYWGQGTLVTVSS VL: DIQMTQSPSSLSASVGDRVTITCRASQSVSSAVAWYQQKPGKAPKLLIYSASSLYSGVPSRFSGSRSGTDFTLTISSLQPEDFATYYCQQAYESPYTFGQGTKVEIK	not to cells transfected to express rat or mouse 5T4	reactive	not to cells transfected to express rat or mouse 5T4	69.18	89.94
–	mAbA15: 5T4 antibody comprising VH of SEQ ID NO:44 and VL of SEQ ID NO:45 (antibody, V domains shown, Antibody mAbA15 VH Sequence; Antibody mAbA15 VL Sequence) VH: EVQLVESGGGLVQPGGSLRLSCAASGFTFSSYYIHWVRQAPGKGLEWVAYITSTGSYTEYADSVKGRFTISADTSKNTAYLQMNSLRAEDTAVYYCARYDRSTRYSGLDYWGQGTLVTVSS VL: DIQMTQSPSSLSASVGDRVTITCRASQSVSSAVAWYQQKPGKAPKLLIYSASSLYSGVPSRFSGSRSGTDFTLTISSLQPEDFATYYCQQAYATPVTFGQGTKVEIK	not to cells transfected to express rat or mouse 5T4	reactive	not to cells transfected to express rat or mouse 5T4	70.07	86.38
